According to the RNAGym collection of RNA variant scans (doi:10.1093/molbev/msab373):

B1: Azoarcus group I ribozyme (parent)
chain: GUGCCUUGCGCCGGGAAACCACGCAAGGGAUGGUGUCAAAUUCGGCGAAACCUAAGCGCCCGCCCGGGCGUAUGGCAACGCCGAGCCAAGCUUCGGCGCCUGCGCCGAUGAAGGUGUAGAGACUAGACGGCACCCACCUAAGGCAAACGCUAUGGUGAAGGCAUAGUCCAGGGAGUGGCGAAAGUCACACAAACCGG

Variants of: B1
Experiment: reverse-splicing fitness (ratio to wild type); higher = more active; in vitro selection; Mg2+ level not given
Outline: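 An in vitro group I ribozyme library with randomized positions was T7-transcribed and gel-purified. In triplicate, 10 pmol RNA in EPPS pH 7.5 was reacted with 50 pmoles of a 30-nt RNA substrate for 1 h at 37 °C across several added MgCl2 levels (1–48 mM), then stopped with EDTA. Products were reverse transcribed from a substrate-complementary primer, PCR-amplified and sequenced (HiSeq 4000). Fitness is a variant's read proportion after selection over that before, normalised to wild type.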

Row | Variant | reverse-splicing fitness
1 | C169U U176C | 0.182
2 | C169U U176G | 0.0131
3 | U176A | 0.87
4 | U176C | 0.815
5 | U176G | 0.348
